Here are results for two substances from patent US6987168.

Several values for one entry are separate records, joined by “and”; a condition that tells them apart may be missing. Equal entries are not always repeated.

Targets include plasmin; trypsin; tissue kallikrein.
What all share (assay): cell-based or functional assay
Test [1] deals with recombinant human tryptase (Promega) (human) (UniProt Q15661). As to conditions: scale: % of the activity in the absence of inhibitor.
Chain of UniProt Q15661 (Q15661 31-275): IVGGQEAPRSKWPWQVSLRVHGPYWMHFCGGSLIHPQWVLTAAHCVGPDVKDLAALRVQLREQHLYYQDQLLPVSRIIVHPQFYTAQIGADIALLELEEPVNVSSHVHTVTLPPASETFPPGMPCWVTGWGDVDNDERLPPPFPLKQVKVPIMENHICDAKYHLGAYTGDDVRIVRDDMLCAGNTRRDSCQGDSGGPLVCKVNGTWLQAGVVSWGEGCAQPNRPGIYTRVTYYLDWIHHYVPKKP

As for “Recombinant tick-derived protease inhibitor protein (rTdPI), histidine-tagged”, in test [1], the residual catalytic activity of tryptase (n-α-benzoyl-DL-Arg-p-nitroanilide, absorbance at 405 nm) after preincubation with rTdPI is 33. The concentration corresponding with 50% plasmin inhibition (peptide release from resorufin-labelled casein); one of two values from two assumed molecular masses (12 kDa or 13.5 kDa) with plasmin was 0.32 µM and 0.43 µM. For the same substance, the concentration for 50% trypsin inhibition (peptide release from resorufin-labelled casein); one of two values from two assumed molecular masses (12 kDa or 13.5 kDa) in the test with trypsin was 0.044 µM and 0.033 µM. Moreover, the tissue kallikrein activity (n-benzoyl-Pro-Phe-Arg-pNA, absorbance at 410 nm); percent inhibition at 7.5 µM rTdPI (% inhibition at 7.5 µM) with tissue kallikrein is 50.
In the test with plasmin, “soybean trypsin inhibitor (from UniProt P01070 25-205)” had a concentration corresponding with 50% plasmin inhibition (peptide release from resorufin-labelled casein) of 0.23 µM. In addition, the concentration for 50% trypsin inhibition (peptide release from resorufin-labelled casein) with trypsin stood at 0.026 µM.
